T1: GST-ONAC022 (Oryza sativa (rice), UniProt Q10S65 1-316)
T1 sequence: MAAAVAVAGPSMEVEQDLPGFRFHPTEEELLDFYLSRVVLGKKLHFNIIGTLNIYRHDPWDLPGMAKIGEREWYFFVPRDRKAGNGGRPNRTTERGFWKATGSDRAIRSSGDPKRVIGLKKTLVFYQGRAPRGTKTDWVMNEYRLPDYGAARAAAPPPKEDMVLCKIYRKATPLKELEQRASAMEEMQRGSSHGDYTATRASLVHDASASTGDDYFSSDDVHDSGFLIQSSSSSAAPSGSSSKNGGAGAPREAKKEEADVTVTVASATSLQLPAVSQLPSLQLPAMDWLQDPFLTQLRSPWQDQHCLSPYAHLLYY

B1: wNACRS (dsDNA)
DNA 1: ATCGCATGTGGAGCACGGAGCACGTTTT
DNA 2: AAAACGTGCTCCGTGCTCCACATGCGAT
B2: mNACRS (dsDNA)
DNA 1: ATCGAAAAAAGAGAAAAGAGAAAATTTT
DNA 2: AAAATTTTCTCTTTTCTCTTTTTTCGAT

Key:
GST-ONAC022 [1] = target: T1, GST-ONAC022; assay: EMSA; self-competition by 200x unlabeled wNACRS attenuates the shift; 10 uL with 5x EMSA buffer (Beyotime chemiluminescent EMSA kit), 2 ug protein, 1 uL biotin probe; competitor preincubated 20 min; 8% native PAGE; salt, pH and temperature not stated; details: protein: recombinant; tags: N-terminal GST (pGEX-6p-1); chain copies: 2; blunt
GST-ONAC022 [2] = target: T1, GST-ONAC022; assay: EMSA; 10 uL with 5x EMSA buffer (Beyotime chemiluminescent EMSA kit), 2 ug protein, 1 uL biotin probe; competitor preincubated 20 min; 8% native PAGE; salt, pH and temperature not stated; details: protein: recombinant; tags: N-terminal GST (pGEX-6p-1); chain copies: 2; blunt

| Binder | binding result (GST-ONAC022 [1]) | binding result (GST-ONAC022 [2]) |
| --- | --- | --- |
| B1 | binds |  |
| B2 |  | no binding |

Source: PMC4722120, “Overexpression of a Stress-Responsive NAC Transcription Factor Gene ONAC022 Improves Drought and Salt Tolerance in Rice”
